From paper PMC10868123 come the findings set out here.

For the experiment, the target named is VPS13C, endogenous in HEK-293 cells [human (endogenous in HEK-293 FT/HEK-293 T)]. In words: co-IP (anti-GFP IP, immunoblot quantification). To be noted: N = 4; parent: 1; read off a plot. (In general: In western blotting, separated proteins are transferred to a membrane and probed.)

Turning to “eGFP-Rab10 WT mutant T73A [not stated] / VPS13C, endogenous in HEK-293 cells [human (endogenous in HEK-293 FT/HEK-293 T)] chain 1 T73A”, the ratio to parent stood at 0.34.
Take “eGFP-Rab10 WT mutant T73E [not stated] / VPS13C, endogenous in HEK-293 cells [human (endogenous in HEK-293 FT/HEK-293 T)] chain 1 T73E”: the ratio to parent turned out to be 1.3.
